In paper PMC7382241, “Genomic discovery of an evolutionarily programmed modality for small-molecule targeting of an intractable protein surface” (Proceedings of the National Academy of Sciences of the …, 2020):

Molecular target: the molecule itself
Experiment: crystal structure; CEP250_(11.4) with three-molar excess of FKBP12 and nine-molar excess of WDB002, ternary complex isolated by SEC; crystals in 0.1 M Hepes 7.0, 0.2 M sodium malonate, 21% PEG 3350

B1: CEP250_(11.4) (residues 2,134 to 2,231) (domain or fragment, human, UniProt Q9BV73 2134-2231, looked up)
chain: MEEQSLKLDSLEPRLQRELERLQAALRQTEAREIEWREKAQDLALSLAQTKASVSSLQEVAMFLQASVLERDSEQQRLQDELELTRRALEKERLHSPG
notes: human CEP250 residues 2,134 to 2,231; forms a homodimeric coiled coil in the crystal; tags not specified in the main text; Tags are in SI Materials and Methods; also called 11.4 kDa degradation product of CEP250; source: E. coli BL21(DE3)pLysS
- stoichiometry N: 2
